Earlier results as cited in PMC9636575.
pKd: −log10 of the molar value.

Biological target: MqsA 1-76 (Escherichia coli) (UniProt Q46864)
Sequence (Q46864 1-76): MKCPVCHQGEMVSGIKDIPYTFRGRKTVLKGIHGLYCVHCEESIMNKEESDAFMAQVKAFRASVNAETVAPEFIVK

MqsR, sequence (Q46865 whole entry): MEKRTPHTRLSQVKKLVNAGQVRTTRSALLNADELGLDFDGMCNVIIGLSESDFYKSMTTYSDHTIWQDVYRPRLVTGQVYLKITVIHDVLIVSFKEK

Substance: MqsR (from UniProt Q46865)
- pKd: > 9.00
